Legend:
Test in all cases: cell-based or functional assay
[1] = target: H3 peptide (first 30 amino acids of H3) of the H3 methylation indicator, methylated by G9a
[2] = target: H3 peptide segment (first 30 amino acids of H3) of the phosphorylation indicator, phosphorylated by Msk-1
[3] = target: H4 peptide of the H4 acetylation indicator, acetylated by CBP

## chromodomain of HP1 in the H3 methylation indicator
[1]
  YFP/CFP emission ratio increase (FRET) on in vitro methylation by G9a + SAM: 20%

## 14-3-3 domain of the histone 3 phosphorylation indicator
[2]
  YFP/CFP emission ratio increase (FRET) on in vitro phosphorylation by Msk-1: 25%

## bromodomain of the Drosophila transcription factor TAF250 in the H4 acetylation reporter
[3]
  YFP/CFP emission ratio increase (FRET) on in vitro acetylation by CBP + acetyl-CoA: 11%

From patent US20040265906A1
